Measured values from paper PMC7367873, “Dissecting the sequence determinants for dephosphorylation by the catalytic subunits of phosphatases PP1 and PP2A” (Nature Communications, 2020).
Each block holds one molecule with its values, some of them ahead of it.

Tests used:
[1] = system: GFP-14-3-3β and its binding proteins; assay: GFP-14-3-3β co-IP with LC-MS/MS label-free quantification, untreated versus PP1c-treated; parameters: species or system human; conditions: pairwise comparison PP1 vs untreated
[2] = system: GFP-14-3-3β; assay: GFP-14-3-3β co-IP with LC-MS/MS, untreated GFP-14-3-3β versus GFP control (14-3-3 interactome); format: binding, human; conditions: pairwise comparison untreated vs GFP
[3] = log2 difference, label-free quantification, 3 replicates each

Difference (log2), PP1 vs untreated [1]: 0.07419 log2
B1: SLC3A2 (protein, UniProt P08195 1-630, looked up)
Amino acid transporter heavy …: MELQPPEASIAVVSIPRQLPGSHSEAGVQGLSAGDDSELGSHCVAQTGLELLASGDPLPSASQNAEMIETGSDCVTQAGLQLLASSDPPALASKNAEVTGTMSQDTEVDMKEVELNELEPEKQPMNAASGAAMSLAGAEKNGLVKIKVAEDEAEAAAAAKFTGLSKEELLKVAGSPGWVRTRWALLLLFWLGWLGMLAGAVVIIVRAPRCRELPAQKWWHTGALYRIGDLQAFQGHGAGNLAGLKGRLDYLSSLKVKGLVLGPIHKNQKDDVAQTDLLQIDPNFGSKEDFDSLLQSAKKKSIRVILDLTPNYRGENSWFSTQVDTVATKVKDALEFWLQAGVDGFQVRDIENLKDASSFLAEWQNITKGFSEDRLLIAGTNSSDLQQILSLLESNKDLLLTSSYLSDSGSTGEHTKSLVTQYLNATGNRWCSWSLSQARLLTSFLPAQLLRLYQLMLFTLPGTPVFSYGDEIGLDAAALPGQPMEAPVMLWDESSFPDIPGAVSANMTVKGQSEDPGSLLSLFRRLSDQRSKERSLLHGDFHAFSAGPGLFSYIRHWDQNERFLVVLNFGDVGLSAGLQASDLPASASLPAKADLLLSTQPGREEGSPLELERLKLEPHEGLLLRFPYAA
Difference (log2), untreated vs GFP [2]: 0.2155 log2

Difference (log2), PP1 vs untreated [1]: 0.06363 log2
B2: SOAT1 (protein, UniProt P35610 1-550, looked up)
Sterol O-acyltransferase 1: MVGEEKMSLRNRLSKSRENPEEDEDQRNPAKESLETPSNGRIDIKQLIAKKIKLTAEAEELKPFFMKEVGSHFDDFVTNLIEKSASLDNGGCALTTFSVLEGEKNNHRAKDLRAPPEQGKIFIARRSLLDELLEVDHIRTIYHMFIALLILFILSTLVVDYIDEGRLVLEFSLLSYAFGKFPTVVWTWWIMFLSTFSVPYFLFQHWATGYSKSSHPLIRSLFHGFLFMIFQIGVLGFGPTYVVLAYTLPPASRFIIIFEQIRFVMKAHSFVRENVPRVLNSAKEKSSTVPIPTVNQYLYFLFAPTLIYRDSYPRNPTVRWGYVAMKFAQVFGCFFYVYYIFERLCAPLFRNIKQEPFSARVLVLCVFNSILPGVLILFLTFFAFLHCWLNAFAEMLRFGDRMFYKDWWNSTSYSNYYRTWNVVVHDWLYYYAYKDFLWFFSKRFKSAAMLAVFAVSAVVHEYALAVCLSFFYPVLFVLFMFFGMAFNFIVNDSRKKPIWNVLMWTSLFLGNGVLLCFYSQEWYARQHCPLKNPTFLDYVRPRSWTCRYVF
Difference (log2), untreated vs GFP [2]: 0.443 log2

Difference (log2), PP1 vs untreated [1]: 0.01439 log2
B3: TSR1 (protein, UniProt Q2NL82 1-804, looked up)
Pre-rRNA-processing protein …: MAAHRPGPLKQQNKAHKGGRHRGRGSAQRDGKGRLALKTLSKKVRKELSRVDQRHRASQLRKQKKEAVLAEKRQLGGKDGPPHQVLVVPLHSRISLPEAMQLLQDRDTGTVHLNELGNTQNFMLLCPRLKHRWFFTSARPGDLHVVLDMAKVADTILFLLDPLEGWDSTGDYCLSCLFAQGLPTYTLAVQGISGLPLKKQIDTRKKLSKAVEKRFPHDKLLLLDTQQEAGMLLRQLANQKQQHLAFRDRRAYLFAHAVDFVPSEENNLVGTLKISGYVRGQTLNVNRLLHIVGYGDFQMKQIDAPGDPFPLNPRGIKPQKDPDMAMEICATDAVDDMEEGLKVLMKADPGRQESLQAEVIPDPMEGEQTWPTEEELSEAKDFLKESSKVVKKVPKGTSSYQAEWILDGGSQSGGEGDEYEYDDMEHEDFMEEESQDESSEEEEEYETMTIGESVHDDLYDKKVDEEAEAKMLEKYKQERLEEMFPDEVDTPRDVAARIRFQKYRGLKSFRTSPWDPKENLPQDYARIFQFQNFTNTRKSIFKEVEEKEVEGAEVGWYVTLHVSEVPVSVVECFRQGTPLIAFSLLPHEQKMSVLNMVVRRDPGNTEPVKAKEELIFHCGFRRFRASPLFSQHTAADKHKLQRFLTADMALVATVYAPITFPPASVLLFKQKSNGMHSLIATGHLMSVDPDRMVIKRVVLSGHPFKIFTKMAVVRYMFFNREDVLWFKPVELRTKWGRRGHIKEPLGTHGHMKCSFDGKLKSQDTVLMNLYKRVFPKWTYDPYVPEPVPWLKSEISSTVPQGGME
Difference (log2), untreated vs GFP [2]: 1.267 log2

Difference (log2), PP1 vs untreated [1]: 0.07996 log2
B4: DDX17 (protein, UniProt Q92841 1-729, looked up)
Probable ATP-dependent RNA …: MPTGFVAPILCVLLPSPTREAATVASATGDSASERESAAPAAAPTAEAPPPSVVTRPEPQALPSPAIRAPLPDLYPFGTMRGGGFGDRDRDRDRGGFGARGGGGLPPKKFGNPGERLRKKKWDLSELPKFEKNFYVEHPEVARLTPYEVDELRRKKEITVRGGDVCPKPVFAFHHANFPQYVMDVLMDQHFTEPTPIQCQGFPLALSGRDMVGIAQTGSGKTLAYLLPAIVHINHQPYLERGDGPICLVLAPTRELAQQVQQVADDYGKCSRLKSTCIYGGAPKGPQIRDLERGVEICIATPGRLIDFLESGKTNLRRCTYLVLDEADRMLDMGFEPQIRKIVDQIRPDRQTLMWSATWPKEVRQLAEDFLRDYTQINVGNLELSANHNILQIVDVCMESEKDHKLIQLMEEIMAEKENKTIIFVETKRRCDDLTRRMRRDGWPAMCIHGDKSQPERDWVLNEFRSGKAPILIATDVASRGLDVEDVKFVINYDYPNSSEDYVHRIGRTARSTNKGTAYTFFTPGNLKQARELIKVLEEANQAINPKLMQLVDHRGGGGGGGGRSRYRTTSSANNPNLMYQDECDRRLRGVKDGGRRDSASYRDRSETDRAGYANGSGYGSPNSAFGAQAGQYTYGQGTYGAAAYGTSSYTAQEYGAGTYGASSTTSTGRSSQSSSQQFSGIGRSGQQPQPLMSQQFAQPPGATNMIGYMGQTAYQYPPPPPPPPPSRK
Difference (log2), untreated vs GFP [2]: 0.6933 log2

Difference (log2), PP1 vs untreated [1, 3]: 1.883
B5: NAP1L1 (protein, UniProt P55209 2-388, looked up)
Nucleosome assembly protein …: ADIDNKEQSELDQDLDDVEEVEEEETGEETKLKARQLTVQMMQNPQILAALQERLDGLVETPTGYIESLPRVVKRRVNALKNLQVKCAQIEAKFYEEVHDLERKYAVLYQPLFDKRFEIINAIYEPTEEECEWKPDEEDEISEELKEKAKIEDEKKDEEKEDPKGIPEFWLTVFKNVDLLSDMVQEHDEPILKHLKDIKVKFSDAGQPMSFVLEFHFEPNEYFTNEVLTKTYRMRSEPDDSDPFSFDGPEIMGCTGCQIDWKKGKNVTLKTIKKKQKHKGRGTVRTVTKTVSNDSFFNFFAPPEVPESGDLDDDAEAILAADFEIGHFLRERIIPRSVLYFTGEAIEDDDDDYDEEGEEADEEGEEEGDEENDPDYDPKKDQNPAEC
Difference (log2), untreated vs GFP [2, 3]: -0.3295

Difference (log2), PP1 vs untreated [1]: 0.0136 log2
B6: PHF6 (protein, UniProt Q8IWS0 2-365, looked up)
PHD finger protein 6: SSSVEQKKGPTRQRKCGFCKSNRDKECGQLLISENQKVAAHHKCMLFSSALVSSHSDNESLGGFSIEDVQKEIKRGTKLMCSLCHCPGATIGCDVKTCHRTYHYHCALHDKAQIREKPSQGIYMVYCRKHKKTAHNSEADLEESFNEHELEPSSPKSKKKSRKGRPRKTNFKGLSEDTRSTSSHGTDEMESSSYRDRSPHRSSPSDTRPKCGFCHVGEEENEARGKLHIFNAKKAAAHYKCMLFSSGTVQLTTTSRAEFGDFDIKTVLQEIKRGKRMKCTLCSQPGATIGCEIKACVKTYHYHCGVQDKAKYIENMSRGIYKLYCKNHSGNDERDEEDEERESKSRGKVEIDQQQLTQQQLNGN
Difference (log2), untreated vs GFP [2]: 0.8956 log2

Difference (log2), PP1 vs untreated [1]: 0.02225 log2
B7: EEF1A1P5;EEF1A1 (protein, UniProt P68104 2-462, looked up)
Elongation factor 1-alpha 1: GKEKTHINIVVIGHVDSGKSTTTGHLIYKCGGIDKRTIEKFEKEAAEMGKGSFKYAWVLDKLKAERERGITIDISLWKFETSKYYVTIIDAPGHRDFIKNMITGTSQADCAVLIVAAGVGEFEAGISKNGQTREHALLAYTLGVKQLIVGVNKMDSTEPPYSQKRYEEIVKEVSTYIKKIGYNPDTVAFVPISGWNGDNMLEPSANMPWFKGWKVTRKDGNASGTTLLEALDCILPPTRPTDKPLRLPLQDVYKIGGIGTVPVGRVETGVLKPGMVVTFAPVNVTTEVKSVEMHHEALSEALPGDNVGFNVKNVSVKDVRRGNVAGDSKNDPPMEAAGFTAQVIILNHPGQISAGYAPVLDCHTAHIACKFAELKEKIDRRSGKKLEDGPKFLKSGDAAIVDMVPGKPMCVESFSDYPPLGRFAVRDMRQTVAVGVIKAVDKKAAGAGKVTKSAQKAQKAK
Difference (log2), untreated vs GFP [2]: -0.241 log2

Difference (log2), PP1 vs untreated [1]: 0.03143 log2
B8: LYPD3 (protein, UniProt O95274 31-326, looked up)
Ly6/PLAUR domain-containing …: LECYSCVQKADDGCSPNKMKTVKCAPGVDVCTEAVGAVETIHGQFSLAVRGCGSGLPGKNDRGLDLHGLLAFIQLQQCAQDRCNAKLNLTSRALDPAGNESAYPPNGVECYSCVGLSREACQGTSPPVVSCYNASDHVYKGCFDGNVTLTAANVTVSLPVRGCVQDEFCTRDGVTGPGFTLSGSCCQGSRCNSDLRNKTYFSPRIPPLVRLPPPEPTTVASTTSVTTSTSAPVRPTSTTKPMPAPTSQTPRQGVEHEASRDEEPRLTGGAAGHQDRSNSGQYPAKGGPQQPHNKGC
Difference (log2), untreated vs GFP [2]: -0.7562 log2

Difference (log2), PP1 vs untreated [1]: 0.06756 log2
B9: HDLBP (protein, UniProt Q00341 2-1268, looked up)
Vigilin: SSVAVLTQESFAEHRSGLVPQQIKVATLNSEEESDPPTYKDAFPPLPEKAACLESAQEPAGAWGNKIRPIKASVITQVFHVPLEERKYKDMNQFGEGEQAKICLEIMQRTGAHLELSLAKDQGLSIMVSGKLDAVMKARKDIVARLQTQASATVAIPKEHHRFVIGKNGEKLQDLELKTATKIQIPRPDDPSNQIKITGTKEGIEKARHEVLLISAEQDKRAVERLEVEKAFHPFIAGPYNRLVGEIMQETGTRINIPPPSVNRTEIVFTGEKEQLAQAVARIKKIYEEKKKKTTTIAVEVKKSQHKYVIGPKGNSLQEILERTGVSVEIPPSDSISETVILRGEPEKLGQALTEVYAKANSFTVSSVAAPSWLHRFIIGKKGQNLAKITQQMPKVHIEFTEGEDKITLEGPTEDVNVAQEQIEGMVKDLINRMDYVEINIDHKFHRHLIGKSGANINRIKDQYKVSVRIPPDSEKSNLIRIEGDPQGVQQAKRELLELASRMENERTKDLIIEQRFHRTIIGQKGERIREIRDKFPEVIINFPDPAQKSDIVQLRGPKNEVEKCTKYMQKMVADLVENSYSISVPIFKQFHKNIIGKGGANIKKIREESNTKIDLPAENSNSETIIITGKRANCEAARSRILSIQKDLANIAEVEVSIPAKLHNSLIGTKGRLIRSIMEECGGVHIHFPVEGSGSDTVVIRGPSSDVEKAKKQLLHLAEEKQTKSFTVDIRAKPEYHKFLIGKGGGKIRKVRDSTGARVIFPAAEDKDQDLITIIGKEDAVREAQKELEALIQNLDNVVEDSMLVDPKHHRHFVIRRGQVLREIAEEYGGVMVSFPRSGTQSDKVTLKGAKDCVEAAKKRIQEIIEDLEAQVTLECAIPQKFHRSVMGPKGSRIQQITRDFSVQIKFPDREENAVHSTEPVVQENGDEAGEGREAKDCDPGSPRRCDIIIISGRKEKCEAAKEALEALVPVTIEVEVPFDLHRYVIGQKGSGIRKMMDEFEVNIHVPAPELQSDIIAITGLAANLDRAKAGLLERVKELQAEQEDRALRSFKLSVTVDPKYHPKIIGRKGAVITQIRLEHDVNIQFPDKDDGNQPQDQITITGYEKNTEAARDAILRIVGELEQMVSEDVPLDHRVHARIIGARGKAIRKIMDEFKVDIRFPQSGAPDPNCVTVTGLPENVEEAIDHILNLEEEYLADVVDSEALQVYMKPPAHEEAKAPSRGFVVRDAPWTASSSEKAPDMSSSEEFPSFGAQVAPKTLPWGPKR
Difference (log2), untreated vs GFP [2]: 0.159 log2
